# B1: chicken cystatin: non-covalent protein inhibitor of cysteine peptidases of the cystatin family (protein, UniProt P01038 24-139, looked up)
# Cystatin: SEDRSRLLGAPVPVDENDEGLQRALQFAMAEYNRASNDKYSSRVVRVISAKRQLVSGIKYILQVEIGRTTCPKSSGDLQSCEFHDEPEMAKYTTCTFVVYSIPWLNQIKLLESKCQ
# Key:
# DPPI transferase assay = type: biochemical, rat; details: FIG. 8
# From the text: The rate of transfer of dipeptides from a donor peptide to the nucleophilic amino terminus of an acceptor peptide, the ratio of dipeptide transfer to hydrolysis and the stability of elongated peptide product to hydrolytic turnover are estimated in a transferase assay.
# In these reactions, X and Y are any amino acid residue with the exception of prolyl. X is preferably Phe and Y is preferably Arg or Lys and pNA is a para-nitroanilide group. H and COOH indicate unblocked peptide amino and carboxy termini, respectively. In the transferase reaction, DPPI catalyses the transpeptidation of dipeptide H-Pro-X from the peptide amide to the free amino group of residue Y. The dipeptide can not be transferred to a second H-Pro-X-NH2 molecule because of the N-terminal Pro residue. The progress of the transpeptidation reaction is monitored in the trypsin cleavage reaction, in which produced H-Pro-X-Y-pNA tripeptide is hydrolysed following the addition of trypsin endoprotease to an aliquot of reaction mixture. Trypsin hydrolyses H-Pro-X-Arg/Lys-pNA much more rapidly than H-Arg/Lys-pNA (low aminopeptidase activity) making it possible to determine the amount of tripeptide formed. The transferase reaction is essentially stopped upon addition of trypsin because the reactants are diluted 10-fold (resulting in an approximately 100-fold lower rate) and because DPPI is unstable at pH 8.3.
# The concentration of tripeptide obtained also depends on the rates of hydrolysis of the initial substrate (Hydrolysis reaction 1) and of the tripeptide (Hydrolysis reaction 2):
# The hydrolysed peptides […] and […] are not DPPI substrates and can no longer be used in peptide synthesis. Accordingly, the peptidase activity of DPPI degrades both the trypsin substrate (before trypsin is added to the reaction mixture) and one of its precursors.
# 20 μl of DPPI (1-50 U/ml) in 20 mM Tris-HCl or sodium phosphate-NaOH buffer pH 7.5 is mixed with 20 μl 20 mM dithiothreitol (DTT) and allowed to incubate for 30 min at 5-37° C., preferably 12° C. Meanwhile, 10 μl 400 mM H-Pro-X-NH2 and 10 μl 500 mM H-Y-pNA (both in 100% dimethyl formamide) and 140 μl […] Tris-HCl or sodium phosphate-NaOH buffer, pH 7.5 are mixed and incubated at the same temperature. The transferase and hydrolysis reactions are initiated by the addition of reduced and activated DPPI to the peptide mixture (same temperature). All reaction mixtures should include a minimum of 10 mM chloride.
# The progress of the reaction is followed by mixing 10 μl aliquots with 1 μM trypsin in 0.1 M Tris-HCl buffer pH 8.3 and at 5-37° C., preferably 20-37° C. A yellow colour quickly appears. After 10 min, 1000 μl of water are added and the absorbance at 405 nm is measured against an appropriate blank.
# [1] = tested on: one or more cysteine peptidases present in the eluates of the Butyl SEPHAROSE FF column; assay: Proteolytic processing of immature DPPI peptides in Butyl Sepharose FF eluate (SDS-PAGE); type: biochemical; details: eluate incubated at pH 4.5, 4° C.
# Method: DPPI eluted from the hydrofobic interaction column was in general only partially processed to the mature, active form. To complete the processing, the eluate was incubated at pH 4.5 and 4° C. for 18-40 hours to convert the immature peptides to the peptides of mature rrDPPI or rhDPPI. […] Furthermore, the rate of processing was dependent on the pH of the buffer during incubation. No conversion of the immature peptides could be observed at pH 7.0 as determined by SDS-PAGE analysis but processing was observed when incubation was performed at pH 6.5 or below. The processing proceeded at highest rate at about pH 4.5. The fully processed rhDPPI and rrDPPI were finally purified and concentrated on Q-SEPHAROSE™ FF as described above. Recombinant hDPPI was quantified using an extinction coefficient at 280 nm of 2.0.
molecule,measurement,setting,value
N226S229:Q226N229: rat DPPI active site double mutant Asn226:Ser229 to Gln226:Asn229,stability of the produced tripeptide product in presence of the variant,DPPI transferase assay,much more stable
same,transferase activity versus hydrolytic activity (maximum level of tripeptide),DPPI transferase assay,favoured over the hydrolytic activity
same,rate of generation of the tripeptide substrate,DPPI transferase assay; compared with wild type and D274Q,nearly as fast as the other two variants
"CC(C)C[C@H](NC(=O)[C@H]1O[C@@H]1C(=O)O)C(=O)NCCCCN=C(N)N [E-64, reference compound]",proteolytic processing of the immature peptides to mature rrDPPI or rhDPPI,[1]; addition of 1 μM E-64,completely blocked
D274Q: rat DPPI active site mutant Asp274 to Gln274,influence of mutation on rat DPPI transferase activity,DPPI transferase assay; versus wild type rat DPPI,no favourable influence
B1,proteolytic processing of the immature peptides to mature rrDPPI or rhDPPI,[1]; addition of 0.1 μM chicken cystatin,completely blocked

# Reference: patent publication US7736875B2, “Dipeptidyl peptidase I crystal structure and its uses” (Prozymex A/S, priority 2000, dated 2010)
